Assay results from PMC8774053, “Genome-wide association of the metabolic shifts underpinning dark-induced senescence in Arabidopsis” (The Plant Cell, 2021).

B1: TAT1^A (accession CAM-61) (Arabidopsis thaliana) (protein)
chain: MENGATTTSTITIKGILSLLMESITTEEDEGGKRVISLGMGDPTLYSCFRTTQVSLQAVSDSLLSNKFHGYSPTVGLPQARRAIAEYLSRDLPYKLSQDDVFITSGCTQAIDVALSMLARPRANILLPRPGFPIYELCAKFRHLEVRYVDLLPENGWEIDLDAVEALADENTVALVVINPGNPCGNVYSYQHLMKIAESAKKLGFLVIADEVYGHLAFGSKPFVPMGVFGSIVPVLTLGSLSKRWIVPGWRLGWFVTTDPSGSFKDPKIIERFKKYFDILGGPATFIQAAVPTILEQTDESFFKKTLNSLKNSSDICCDWIKEIPCIDSSHRPEGSMAMMVKLNLSLLEDVSDDIDFCFKLAREESVILLPGTAVGLKNWLRITFAADATSIEEAFKRIKCFYLRHAKTQYPTI
B2: TAT1 (Col-0, At5g53970.1; positive control) (Arabidopsis thaliana) (protein)
chain: B1 chain

Substrate: N[C@@H](Cc1ccc(O)cc1)C(=O)O
Experiment: purified protein
Format: biochemical, Arabidopsis thaliana
Conditions: 0-8 mM tyrosine, 100 mM alpha-ketoglutarate, 0.2 mM PLP, 100 mM Tris-HCl pH 8.5, 30 C, 5 min, constant not given in text, figure only

Row | Protein | Km | kcat
1 | B1 | 0.41 ± 0.03 mM | 45.85 ± 0.88 s⁻¹
2 | B2 | 0.39 ± 0.06 mM | 47.84 ± 1.72 s⁻¹
